Test results published in paper PMC3819411.

Target: Bardet-Biedl syndrome 5 protein (BBS5), endogenous in bovine rod outer segments (bovine (endogenous in rod outer segments))
Experiment: co-IP

reduction of co-precipitated Arr1 after light or phorbol ester against dark: 50%
Substance: arrestin1 (Arr1), endogenous in bovine rod outer segments (from UniProt P08168 1-404) (natural protein)
